# According to PMC2923024:
# Tested on: hnRNP A1, P09651-2
# Assay: footprinting
sequence,measurement,value
GGAUGUUCUCUUCACUGUGGGAUGAGGUAGUAGGUUGUAUAGUUUUACCCUCACACCCACCACUGGGAGAUAACUAUACAAUCUACUGUCUUUCCUAACGUGAUAGAAAAGUCUGCA [pri-let-7a-1 GGG/CCC],binding,no binding
